These results are taken from patent publication US8115059B1, “Gene expression modulation system for use in plants and method for modulating gene expression in plants” (University of Kentucky Research Foundation, priority 2005, dated 2012).

The target in assay [1] is GAL4 DBD:CfEcR fusion protein (Choristoneura fumiferana). Kind of assay: cell-based or functional assay.
In another assay the test system is ms45 mutant. As to conditions: transgenic ms45 maize with Ms45 under EcR-based switch; cited from earlier work.

“VP16 AD:LmRXR triple mutant A62S:T81H:V123I (Lm-7) fusion protein (receptor)” displayed a methoxyfenozide concentration at maximum luciferase activity, two-hybrid gene switch, tobacco protoplasts (nM methoxyfenozide) in assay [1] of 80. On to `COc1cccc(C(=O)NN(C(=O)c2cc(C)cc(C)c2)C(C)(C)C)c1C` [methoxyfenozide], for which the “restoration of male fertility” value in the assay on ms45 mutant is “able to restore male fertility”.
